No end group written: not given here.
B1: phage clone C-10 (KIWKLPQ displayed on pIII of M13 phage) (peptide)
peptide: KIWKLPQ
notes: Whole phage particle displaying the heptamer; tested as phage, detected with anti-M13 antibody; not shown: minor coat protein pIII of M13 filamentous phage (Ph.D.-7 library, New England Biolabs)
B2: phage clone C-11 (KLWVLPK displayed on pIII of M13 phage) (peptide)
peptide: KLWVLPK
notes: Whole phage particle displaying the heptamer; tested as phage (ELISA with anti-M13 antibody, titer counts); also called Phage C-11; not shown: minor coat protein pIII of M13 filamentous phage (Ph.D.-7 library, New England Biolabs)
B3: phage clone C-8 (HWGSLRA displayed on pIII of M13 phage) (peptide)
peptide: HWGSLRA
notes: 100% of the round 5 clones; not shown: minor coat protein pIII of M13 filamentous phage (Ph.D.-7 library, New England Biolabs)
B4: phage clone A-9 (KIFVWPY displayed on pIII of M13 phage) (peptide)
peptide: KIFVWPY
modifications: not fully specified
notes: as for B1
B5: phage clone A-8 (KVWSLPQ displayed on pIII of M13 phage) (peptide)
peptide: KVWSLPQ
notes: as for B1

biological target: T1, bovine serum albumin (bovine, UniProt P02769 25-607); assay: phage ELISA on BSA-coated wells, anti-M13 HRP/ABTS
T1 construct: also called BSA
T1 sequence (P02769 25-607 limits assumed): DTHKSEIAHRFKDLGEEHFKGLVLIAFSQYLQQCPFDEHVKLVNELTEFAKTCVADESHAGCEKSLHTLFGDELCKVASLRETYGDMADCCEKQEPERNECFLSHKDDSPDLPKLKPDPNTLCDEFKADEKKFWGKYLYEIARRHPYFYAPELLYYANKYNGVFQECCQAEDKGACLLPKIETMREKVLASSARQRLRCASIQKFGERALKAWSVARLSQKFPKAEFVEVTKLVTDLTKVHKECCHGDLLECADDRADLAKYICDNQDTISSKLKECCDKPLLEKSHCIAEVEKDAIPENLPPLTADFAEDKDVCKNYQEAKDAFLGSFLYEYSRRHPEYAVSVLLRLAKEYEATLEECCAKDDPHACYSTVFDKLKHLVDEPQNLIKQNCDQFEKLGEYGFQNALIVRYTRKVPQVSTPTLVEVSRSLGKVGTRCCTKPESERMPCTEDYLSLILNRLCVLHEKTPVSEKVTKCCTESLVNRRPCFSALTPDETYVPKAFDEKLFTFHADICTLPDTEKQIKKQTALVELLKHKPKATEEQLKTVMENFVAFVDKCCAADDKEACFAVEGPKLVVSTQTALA
Procedure: The clones were tested against the random library (R0) for binding to Matrigel (lighter shaded bars) or BSA (black bars). Bound phages were labeled with peroxidase-conjugated anti-M13 monoclonal antibodies (mAbs), and ABTS absorbance at 405 nm was read against a reference wavelength of 490 nm (mean±s.d., n=3). (**) P<0.01; (***) P<0.001, all compared with R0 (one-way analysis of variance with Tukey post-hoc test).
96-well plates were coated with 100 μL 1/50 dilutions of Matrigel in TBS overnight at 4° C., or TBS buffer only. Plates were blocked with 3% BSA/TBS for 2 h at RT and washed three times. 10¹⁰ p.f.u. of each phage clone was added in 0.5% TBST in triplicate to either Matrigel or BSA-coated wells. Bound phage particles were detected with peroxidase-conjugated mouse anti-M13 monoclonal antibodies at 1/5000 dilution (Amersham Pharmacia Biotech, Piscataway, N.J.). After a 1 h incubation, the reaction was developed with 2,2′-azino-bis(3-ethylbenzthiazoline-6-sulphonic acid) (ABTS) (Amersham) and the absorbance was read at 405 nm against a reference wavelength of 490 nm with a SpectraMax Plus 384 Microplate reader (Molecular Devices, Sunnyvale, Calif.).

Question: Does B1 bind?
Answer: no binding (tested: 10^10 p.f.u. of each phage clone)

Question: Does B2 bind?
Answer: no binding (tested: 10^10 p.f.u. of each phage clone)

Question: Does B3 bind?
Answer: no binding (tested: 10^10 p.f.u. of each phage clone)

Question: Does B4 bind?
Answer: no binding (tested: 10^10 p.f.u. of each phage clone)

Question: Does B5 bind?
Answer: no binding (tested: 10^10 p.f.u. of each phage clone)

biological target: T2, Matrigel growth factor reduced LDEV free (basement membrane extract rich in collagen IV and laminin); assay: phage titer count of eluted phage, input 10^12/mL p.f.u., against random library R0, n=3
T2 construct: A mixture coated on plates, not one protein

Question: For B2, which “fold binding compared to the library (R0), phage titer” value is on record?
Answer: ~300 fold
